Where “and” joins values, the source holds several entries; their conditions need not be identical. Equal values may be shown once.
Legend:
[1] = molecular target: T1, Mouse 4-1BB extracellular region recombinant protein (his-tag) (mouse, UniProt P20334 24-187); assay: ELISA, coated mouse 4-1BB-his 200 ng/well; antibody 1.11 µg/ml
T1 construct: extracellular domain; also called Mouse4-1BB, his-tag; not shown: his-tag
T1 sequence (looked up): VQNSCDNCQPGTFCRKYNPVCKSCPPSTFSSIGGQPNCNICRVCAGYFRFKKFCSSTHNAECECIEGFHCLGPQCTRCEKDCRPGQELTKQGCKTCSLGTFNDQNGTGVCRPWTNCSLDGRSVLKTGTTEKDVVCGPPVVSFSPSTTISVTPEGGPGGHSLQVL

[2] = molecular target: T2, Monkey 4-1BB extracellular region recombinant protein (his-tag) (monkey); assay: ELISA, coated monkey 4-1BB-his 200 ng/well; antibody 0.014 µg/ml
T2 construct: extracellular domain; also called Monkey4-1BB, his-tag

[3] = molecular target: T2, Monkey 4-1BB extracellular region …; assay: ELISA, coated monkey 4-1BB-his 200 ng/well; antibody 1.11 µg/ml
[4] = molecular target: T1, Mouse 4-1BB extracellular region …; assay: ELISA, coated mouse 4-1BB-his 200 ng/well; antibody 0 µg/ml (background well)
[5] = molecular target: T1, Mouse 4-1BB extracellular region …; assay: ELISA, coated mouse 4-1BB-his 200 ng/well; antibody 0.37 µg/ml
[6] = molecular target: T2, Monkey 4-1BB extracellular region …; assay: ELISA, coated monkey 4-1BB-his 200 ng/well; antibody 3.33 µg/ml
[7] = molecular target: T2, Monkey 4-1BB extracellular region …; assay: ELISA, coated monkey 4-1BB-his 200 ng/well; antibody 10.0 µg/ml
[8] = molecular target: T2, Monkey 4-1BB extracellular region …; assay: ELISA, coated monkey 4-1BB-his 200 ng/well
[9] = molecular target: T3, Human 4-1BB extracellular domain recombinant protein (his-tag) (human, UniProt Q07011 24-186); assay: ELISA, coated human 4-1BB-his 200 ng/well; antibody 0 µg/ml (background well)
T3 construct: extracellular domain; also called Human4-1BB, his-tag; human 4-1BB extracellular region recombinant protein; not shown: his-tag

[10] = molecular target: T2, Monkey 4-1BB extracellular region …; assay: ELISA, coated monkey 4-1BB-his 200 ng/well; antibody 0.12 µg/ml
[11] = molecular target: T1, Mouse 4-1BB extracellular region …; assay: ELISA, coated mouse 4-1BB-his 200 ng/well; antibody 0.12 µg/ml
[12] = molecular target: T3, Human 4-1BB extracellular domain …; assay: ELISA, coated human 4-1BB-his 200 ng/well; antibody 0.37 µg/ml
[13] = molecular target: T3, Human 4-1BB extracellular domain …; assay: ELISA, coated human 4-1BB-his 200 ng/well
[14] = molecular target: T3, Human 4-1BB extracellular domain …; assay: ELISA, coated human 4-1BB-his 200 ng/well; antibody 0.014 µg/ml
[15] = molecular target: T1, Mouse 4-1BB extracellular region …; assay: ELISA, coated mouse 4-1BB his-tag 200 ng/well
[16] = molecular target: T2, Monkey 4-1BB extracellular region …; assay: ELISA, coated monkey 4-1BB-his 200 ng/well; antibody 0.37 µg/ml
[17] = molecular target: T3, Human 4-1BB extracellular domain …; assay: ELISA, coated human 4-1BB-his 200 ng/well; antibody 0.041 µg/ml
[18] = molecular target: T1, Mouse 4-1BB extracellular region …; assay: ELISA, coated mouse 4-1BB-his 200 ng/well; antibody 3.33 µg/ml
[19] = molecular target: T3, Human 4-1BB extracellular domain …; assay: ELISA, coated human 4-1BB-his 200 ng/well; antibody 3.33 µg/ml
[20] = molecular target: T1, Mouse 4-1BB extracellular region …; assay: ELISA, coated mouse 4-1BB-his 200 ng/well; antibody 0.014 µg/ml
[21] = molecular target: T3, Human 4-1BB extracellular domain …; assay: ELISA, coated human 4-1BB-his 200 ng/well; antibody 10.0 µg/ml
[22] = molecular target: T1, Mouse 4-1BB extracellular region …; assay: ELISA, coated mouse 4-1BB-his 200 ng/well; antibody 0.041 µg/ml
[23] = molecular target: T2, Monkey 4-1BB extracellular region …; assay: ELISA, coated monkey 4-1BB-his 200 ng/well; antibody 0 µg/ml (background well)
[24] = molecular target: T3, Human 4-1BB extracellular domain …; assay: ELISA, coated human 4-1BB-his 200 ng/well; antibody 0.12 µg/ml
[25] = molecular target: T3, Human 4-1BB extracellular domain …; assay: ELISA, coated human 4-1BB-his 200 ng/well; antibody 1.11 µg/ml
[26] = molecular target: T3, Human 4-1BB extracellular domain …; assay: SPR (Biacore 8K), VHH-hFc captured on Protein A chip, human 4-1BB-his as analyte, 25°C, 1:1 fit
[27] = molecular target: T2, Monkey 4-1BB extracellular region …; assay: ELISA, coated monkey 4-1BB-his 200 ng/well; antibody 0.041 µg/ml
[28] = molecular target: T1, Mouse 4-1BB extracellular region …; assay: ELISA, coated mouse 4-1BB-his 200 ng/well; antibody 10.0 µg/ml

- absorbance at 450 nm [1]: 0.214
- absorbance at 450 nm [2]: 0.325
- absorbance at 450 nm [3]: 1.19
- absorbance at 450 nm [4]: 0.203
- absorbance at 450 nm [5]: 0.199
- absorbance at 450 nm [6]: 2.05
- absorbance at 450 nm [7]: 3.3
- EC50 [8]: 4.36 µg/mL and 54.5 nM
- absorbance at 450 nm [9]: 0.119
- absorbance at 450 nm [10]: 0.433
- absorbance at 450 nm [11]: 0.192
- absorbance at 450 nm [12]: 0.732
- EC50 [13]: 4.06 µg/mL and 50.8 nM
- absorbance at 450 nm [14]: 0.399
- binding result [15]: no binding (tested: 0.014-10 µg/mL)
- absorbance at 450 nm [16]: 0.707
- absorbance at 450 nm [17]: 0.451
- absorbance at 450 nm [18]: 0.219
- absorbance at 450 nm [19]: 1.73
- absorbance at 450 nm [20]: 0.188
- absorbance at 450 nm [21]: 2.93
- absorbance at 450 nm [22]: 0.182
- absorbance at 450 nm [23]: 0.051
- absorbance at 450 nm [24]: 0.562
- absorbance at 450 nm [25]: 1.31
- Kd [26]: 3.36 nM
- koff [26]: 0.000792 s⁻¹
- kon [26]: 236000 M⁻¹ s⁻¹
- absorbance at 450 nm [27]: 0.392
- absorbance at 450 nm [28]: 0.288
B1: 137-18 VHH-hFc recombinant antibody (Fc fusion)
chain: QVQLVESGGGLVHPGGSLRLSCAASGFIFSLYTMSWVRQAPGKGLEWVSDINSGGDSTDYADSVKGRFTISRDNAKSTLYLQMNSLKPEDTAVYYCAKDYPLGQREDYWGQGTQVTVSS
notes: VHH fragment inserted into vector pFclG with human IgG1 Fc tag, expressed in HEK293F; also called CD137-18; not shown: human IgG1 Fc tag of the eukaryotic expression vector pFclG

Source: patent EP4592317A1 (ABlink Biotech Co., Ltd., dated 2025)
